Our source for the CXCR1 specificity values is patent publication US20150011431A1 (Scripps Research, published 2015).

The labels stand for the following.
T1: CXCR1 (UniProt P25024 1-350, limits assumed)
T1 construct: whole, on cells; DiscoveRx cells engineered with a luminescent reporter enzyme for beta-arrestin recruitment; also called CXCR1-U2OS; U2OS-CXCR1
T1 sequence (looked up): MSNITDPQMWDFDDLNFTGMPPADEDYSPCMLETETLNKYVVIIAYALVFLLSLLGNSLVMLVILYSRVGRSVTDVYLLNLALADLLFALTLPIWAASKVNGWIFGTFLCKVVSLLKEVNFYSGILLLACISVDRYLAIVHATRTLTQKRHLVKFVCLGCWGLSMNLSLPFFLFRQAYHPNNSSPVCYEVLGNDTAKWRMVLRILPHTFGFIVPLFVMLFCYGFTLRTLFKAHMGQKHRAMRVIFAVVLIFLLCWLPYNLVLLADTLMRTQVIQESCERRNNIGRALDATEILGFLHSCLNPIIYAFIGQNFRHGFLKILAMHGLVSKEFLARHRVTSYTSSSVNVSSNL

B1: IgG with VH4-34+CDR3-IL8_CDR1 Cow and light chain V1-51 S2A, T5N, P8S, A12G, A13S, P14L & DNN to GDT (antibody)
heavy: not shown
light: QAVLNQPSSVSGSLGQKVTISCSGSSSNIGNNYVSWYQQLPGTAPKLLIYGDTKRPSGIPDRFSGSKSGTSATLGITGLQTGDEADYYCASAEDSSSNAVFGSGTTLTVLGQPKAAPSVTLFPPSSEELQANKATLVCLISDFYPGAVTVAWKADSSPVKAGVETTTPSKQSNNKYAASSYLSLTPEQWKSHRSYSCQVTHEGSTVEKTVAPTECS
notes: IgG, human IgG1 CH1-CH2-CH3; normalized to 10 nM; also called VH4-34 CDR3-IL8 CDR1-Cow / V1-51 S2A, T5N, P8S, A12G, A13S, P14L & DNN to GDT
B2: IgG with VH4-34+CDR3-IL8_CDR1 Cow CDR2 Cow and light chain V1-51 CDR1 I29V, N32G (antibody)
heavy: not shown
light: QSVLTQPPSVSAAPGQKVTISCSGSSSNVGNGYVSWYQQLPGTAPKLLIYDNNKRPSGIPDRFSGSKSGTSATLGITGLQTGDEADYYCASAEDSSSNAVFGSGTTLTVLGQPKAAPSVTLFPPSSEELQANKATLVCLISDFYPGAVTVAWKADSSPVKAGVETTTPSKQSNNKYAASSYLSLTPEQWKSHRSYSCQVTHEGSTVEKTVAPTECS
notes: IgG, human IgG1 CH1-CH2-CH3; normalized to 10 nM; also called VH4-34 CDR3-IL8 CDR1-Cow & CDR2-Cow / V1-51 CDR1 I29V, N32G
B3: IgG with VH4-34+CDR3-IL8_CDR1 Cow and light chain V1-51 CDR1 I29V, N32G (antibody)
heavy: not shown
light: QSVLTQPPSVSAAPGQKVTISCSGSSSNVGNGYVSWYQQLPGTAPKLLIYDNNKRPSGIPDRFSGSKSGTSATLGITGLQTGDEADYYCASAEDSSSNAVFGSGTTLTVLGQPKAAPSVTLFPPSSEELQANKATLVCLISDFYPGAVTVAWKADSSPVKAGVETTTPSKQSNNKYAASSYLSLTPEQWKSHRSYSCQVTHEGSTVEKTVAPTECS
notes: IgG, human IgG1 CH1-CH2-CH3; normalized to 10 nM; also called VH4-34 CDR3-IL8 CDR1-Cow / V1-51 CDR1 I29V, N32G
B4: IgG with VH4-34+CDR3-IL8_CDR1 Cow CDR2 Cow and light chain V1-51 CDR2 DNN to GDT (antibody)
heavy: not shown
light: QSVLTQPPSVSAAPGQKVTISCSGSSSNIGNNYVSWYQQLPGTAPKLLIYGDTKRPSGIPDRFSGSKSGTSATLGITGLQTGDEADYYCASAEDSSSNAVFGSGTTLTVLGQPKAAPSVTLFPPSSEELQANKATLVCLISDFYPGAVTVAWKADSSPVKAGVETTTPSKQSNNKYAASSYLSLTPEQWKSHRSYSCQVTHEGSTVEKTVAPTECS
notes: IgG, human IgG1 CH1-CH2-CH3; normalized to 10 nM; also called VH4-34 CDR3-IL8 CDR1-Cow & CDR2-Cow / V1-51 CDR2 DNN to GDT
B5: IgG with VH4-34+CDR3-IL8_CDR1 Cow CDR2 Cow and light chain V1-51 S2A, T5N, P8S, A12G, A13S, P14L (antibody)
heavy: not shown
light: QAVLNQPSSVSGSLGQKVTISCSGSSSNIGNNYVSWYQQLPGTAPKLLIYDNNKRPSGIPDRFSGSKSGTSATLGITGLQTGDEADYYCASAEDSSSNAVFGSGTTLTVLGQPKAAPSVTLFPPSSEELQANKATLVCLISDFYPGAVTVAWKADSSPVKAGVETTTPSKQSNNKYAASSYLSLTPEQWKSHRSYSCQVTHEGSTVEKTVAPTECS
notes: IgG, human IgG1 CH1-CH2-CH3; normalized to 10 nM; also called VH4-34 CDR3-IL8 CDR1-Cow & CDR2-Cow / V1-51 S2A, T5N, P8S, A12G, A13S, P14L
B6: IgG with VH4-34+CDR3-IL8_CDR1 Cow and light chain V1-51 CDR2 DNNKRP to GDTSRA (antibody)
heavy: not shown
light: QSVLTQPPSVSAAPGQKVTISCSGSSSNIGNNYVSWYQQLPGTAPKLLIYGDTSRASGIPDRFSGSKSGTSATLGITGLQTGDEADYYCASAEDSSSNAVFGSGTTLTVLGQPKAAPSVTLFPPSSEELQANKATLVCLISDFYPGAVTVAWKADSSPVKAGVETTTPSKQSNNKYAASSYLSLTPEQWKSHRSYSCQVTHEGSTVEKTVAPTECS
notes: IgG, human IgG1 CH1-CH2-CH3; normalized to 10 nM; Only 'DNN (amino acids 51-53)' is printed; positions 54 and 56 are counted on from it
B7: IgG with VH4-34+CDR3-IL8_CDR1 Cow CDR2 Cow and light chain V1-51 CDR2 DNNKRP to GDTSRA (antibody)
heavy: not shown
light: QSVLTQPPSVSAAPGQKVTISCSGSSSNIGNNYVSWYQQLPGTAPKLLIYGDTSRASGIPDRFSGSKSGTSATLGITGLQTGDEADYYCASAEDSSSNAVFGSGTTLTVLGQPKAAPSVTLFPPSSEELQANKATLVCLISDFYPGAVTVAWKADSSPVKAGVETTTPSKQSNNKYAASSYLSLTPEQWKSHRSYSCQVTHEGSTVEKTVAPTECS
notes: IgG, human IgG1 CH1-CH2-CH3; normalized to 10 nM

The assay addresses T1, CXCR1. The experiment in a line: flow cytometry with 2 ug/ml heparin sulfate, IgG normalized to 10 nM; CXCR1-U2OS against parental U2OS cells. The method, then: Cell culture supernatants were then tested for binding to cells by flow cytometry. The adherent U2OS or CXCR1-U2OS cells were dissociated with Accutase (Innovative Cell Technologies, Inc., San Diego, Calif.), neutralized with an equal volume of media containing 10% serum, centrifuged at 1000 g, and resuspended in PBS with 2% BSA. Next, cells were dispensed into microtiter plates to achieve between 30,000 to 300,000 cells per well, centrifuged again, and resuspended in cell culture supernatant containing expressed IgG, or a dilution of IgG-containing cell culture supernatant. A fluorescent-conjugated anti-Human Fc antibody was used to detect binding of the expressed antibody to cells.
In an exemplary method, variants of V1-51 were made by overlap PCR and subcloned into pFuse vector for expression as described in Example 4. […] These V1-51 variants were paired with heavy chains encoding VH4-34+CDR3-IL8 (SEQ ID NO: 430), VH4-34+CDR3-IL8_CDR1 Cow (SEQ ID NO: 432), VH4-34+CDR3-IL8_CDR2 Cow (SEQ ID NO: 433), or VH4-34+CDR3-IL8_CDR1 Cow CDR2 Cow, (SEQ ID NO: 436). Transfections and ELISA were carried out as described above, and flow cytometry was used to evaluate CXCR1 binding specificity as previously described, with the modification that cells were resuspended in 2% BSA in PBS plus 2 ug/ml Heparin sulfate, and IgGs were normalized to 10 nM during incubation on cells.
For B1, the CXCR1 specificity came to 6.8.

For the molecule B2, the CXCR1 specificity stood at 11.8.

For the molecule B3, the CXCR1 specificity was 8.9.

B4: the CXCR1 specificity was 16.7.

As for B5, the CXCR1 specificity worked out at 12.2.

As to B6, the CXCR1 specificity was 8.

Take B7: the CXCR1 specificity came to 6.9.
